These results are taken from article PMC6291252 (PLoS ONE, 2018).

The assay concerns the target Recombinant TcdB (aa 1751–2366), biotinylated (Clostridioides difficile; strain of …, UniProt P18177). The experiment in a line: SPR. To be noted: both partners purified.

Recombinant TcdB (aa 1751–2366), biotinylated, sequence (P18177 1751-2366): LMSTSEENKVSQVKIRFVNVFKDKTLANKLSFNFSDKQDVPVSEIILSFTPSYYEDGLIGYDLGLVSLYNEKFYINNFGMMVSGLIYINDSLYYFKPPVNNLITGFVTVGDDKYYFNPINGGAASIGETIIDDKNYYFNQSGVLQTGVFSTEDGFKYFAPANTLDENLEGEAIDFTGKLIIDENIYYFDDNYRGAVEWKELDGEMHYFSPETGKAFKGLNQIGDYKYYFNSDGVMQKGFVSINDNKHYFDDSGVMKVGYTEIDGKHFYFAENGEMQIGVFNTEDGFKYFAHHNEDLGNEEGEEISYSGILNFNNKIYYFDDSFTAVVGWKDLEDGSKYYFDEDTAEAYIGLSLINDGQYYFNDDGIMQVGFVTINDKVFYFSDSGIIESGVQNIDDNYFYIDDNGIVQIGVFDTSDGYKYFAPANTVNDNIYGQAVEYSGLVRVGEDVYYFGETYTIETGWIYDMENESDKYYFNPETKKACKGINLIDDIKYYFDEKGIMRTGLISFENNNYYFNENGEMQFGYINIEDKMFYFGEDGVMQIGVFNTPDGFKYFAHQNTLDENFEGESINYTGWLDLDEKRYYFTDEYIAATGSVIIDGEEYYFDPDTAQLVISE

B1: B39 (VHH)
VHH: QVQLVESGGGLVQAGGSLRLSCAASGLTFSRYVMGWFRQAPGKEREFVAAITWGGTPNYADSVKGRFTISRDNSKNTQYLQMNSLKPEDTAVYYCAAGLGWDSRYSQSYNYWGQGTQVTVSS
Take B1: the Kd (usually the free concentration of one partner at which half of the binding sites on the other are occupied at equilibrium, for simple one-to-one binding) was 0.07 nM; the koff (in general, a measure of how fast the partners let go of each other) was determined as 0.00256 s⁻¹; the kon (in general, the rate constant with which the complex forms) came to 3.44e+07 M⁻¹ s⁻¹.
